Positions count from the first letter of the chain named. Blank lines part the entries; values can stand above or below the binder they belong to.
Columns and labels:
[1] = biological target: T1, Human PTK7 Protein, His Tag (Acro Biosystems) (human, UniProt Q13308 31-704); assay: BLI, antibody on anti-human Fc sensor, 50 nM PTK7 at pH 7.4, dissociation at pH 7.4 or 5.4; 1 = pH dependent binding relative to parent
T1 construct: Bought recombinant protein; also called CCK4; tyrosine-protein kinase-like 7; not shown: His tag
T1 sequence: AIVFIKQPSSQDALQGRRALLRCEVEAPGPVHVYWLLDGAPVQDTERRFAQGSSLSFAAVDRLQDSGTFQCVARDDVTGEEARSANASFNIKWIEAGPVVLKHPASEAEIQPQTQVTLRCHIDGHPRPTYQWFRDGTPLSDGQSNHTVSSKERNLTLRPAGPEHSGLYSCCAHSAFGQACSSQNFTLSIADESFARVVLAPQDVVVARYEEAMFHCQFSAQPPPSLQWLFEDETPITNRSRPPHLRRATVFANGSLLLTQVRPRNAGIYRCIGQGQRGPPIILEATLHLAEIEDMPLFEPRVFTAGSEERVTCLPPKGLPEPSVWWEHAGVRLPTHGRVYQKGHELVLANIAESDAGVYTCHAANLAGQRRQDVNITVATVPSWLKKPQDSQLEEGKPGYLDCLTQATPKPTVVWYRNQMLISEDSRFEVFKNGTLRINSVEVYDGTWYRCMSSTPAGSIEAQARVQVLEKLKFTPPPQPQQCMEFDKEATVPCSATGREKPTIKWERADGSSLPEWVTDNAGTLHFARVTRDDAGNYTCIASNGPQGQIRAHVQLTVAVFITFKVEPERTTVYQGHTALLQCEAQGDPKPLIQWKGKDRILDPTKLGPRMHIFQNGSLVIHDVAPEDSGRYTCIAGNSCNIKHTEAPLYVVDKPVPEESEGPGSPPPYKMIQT

[2] = biological target: T2, Human PTK7/CCK4 Protein, His Tag, Acro Biosystems PT7-H52H3 (human, UniProt Q13308 31-704); assay: BLI, antibody on anti-human Fc sensor
T2 construct: bought protein; also called Human PTK7 Protein, His Tag, Acro Biosystems; not shown: His tag
T2 sequence: T1 sequence

binding result [1]: binds
B1: MYT11349 (antibody, V domains shown)
VH: EVQLVESGGGLVQPGGSLRLSCTASGIDLSNYAVIWVRQAPGKGLEWVGHIYTYDTTYYANWAKGRFTISRDTSKNTVYLQMNSLRAEDTAVYFCARSFSDISDLIKLWGQGTLVTVSS
VL: EIVMTQSPSTLSASVGDRVIITCQASQSLYNNKDLAWYQQKPGKAPKLLIYEASKLASGVPSRFSGSGSGAEFTLTISSLQPDDFATYYCLGEFSCGSGDCLAFGQGTKLTVL
notes: MYT9797 HC variant; captured via anti-human Fc

binding result [1]: binds
B2: MYT11363 (antibody, V domains shown)
VH: B1 VH with H50I, K64H
VL: B1 VL
notes: as for B1

binding result [1]: binds
B3: MYT11392 (antibody, V domains shown)
VH: B1 VH with H50I
VL: B1 VL with K33H
notes: MYT9797 LC variant; captured via anti-human Fc

binding result [1]: binds
B4: MYT11356 (antibody, V domains shown)
VH: B1 VH with H50I, T57H
VL: B1 VL
notes: as for B1

binding result [1]: binds
B5: MYT11409 (antibody, V domains shown)
VH: B1 VH with H50I
VL: B1 VL with S98H
notes: as for B3

binding result [1]: binds
B6: MYT11352 (antibody, V domains shown)
VH: B1 VH with H50I, T53H
VL: B1 VL
notes: as for B1

binding result [1]: binds
B7: MYT11357 (antibody, V domains shown)
VH: B1 VH with H50I, Y58H
VL: B1 VL
notes: as for B1

binding result [1]: binds
B8: MYT11390 (antibody, V domains shown)
VH: B1 VH with H50I
VL: B1 VL with N31H
notes: as for B3

binding result [1]: binds
B9: MYT11396 (antibody, V domains shown)
VH: B1 VH with H50I
VL: B1 VL with E52H
notes: as for B3

binding result [1]: binds
B10: MYT11354 (antibody, V domains shown)
VH: B1 VH with H50I, D55H
VL: B1 VL
notes: as for B1

binding result [1]: binds
B11: MYT11394 (antibody, V domains shown)
VH: B1 VH with H50I
VL: B1 VL with L35H
notes: as for B3

binding result [1]: binds
B12: MYT11380 (antibody, V domains shown)
VH: B1 VH with H50I, D55A
VL: B1 VL
notes: MYT9797 HC alanine variant; captured via anti-human Fc

binding result [1]: binds
B13: MYT11369 (antibody, V domains shown)
VH: B1 VH with H50I, S100H
VL: B1 VL
notes: as for B1

binding result [1]: binds
B14: MYT11398 (antibody, V domains shown)
VH: B1 VH with H50I
VL: B1 VL with S54H
notes: as for B3

binding result [1]: binds
B15: MYT11376 (antibody, V domains shown)
VH: B1 VH with H50I, K107H
VL: B1 VL
notes: as for B1

binding result [1]: binds
B16: MYT11393 (antibody, V domains shown)
VH: B1 VH with H50I
VL: B1 VL with D34H
notes: as for B3

binding result [1]: binds
B17: MYT11355 (antibody, V domains shown)
VH: B1 VH with H50I, T56H
VL: B1 VL
notes: as for B1

binding result [2]: no binding (tested: 50 nM PTK7)
B18: MYT6165 (antibody, V domains shown)
VH: QVQLVQSGPEVKKPGASVKVSCKASGYTFTDYAVHWVRQAPGKRLEWIGHISTYNDYTYNNQDFKGRVTMTRDTSASTAYMELSRLRSEDTAVYYCARGNSYFYALDYWGQGTSVTVSS
VL: EIVLTQSPATLSLSPGERATLSCRASESVDSYGKSFMHWYQQKPGQAPRLLIYRASNLESGIPARFSGSGSGTDFTLTISSLEPEDFAVYYCQQSNEDPWTFGGGTKLEIK
notes: IgG

binding result [2]: no binding (tested: 50 nM PTK7)
B19: MYT6218 (antibody, V domains shown)
VH: B18 VH with H50V
VL: B18 VL with S95H
notes: IgG

binding result [2]: no binding (tested: 50 nM PTK7)
B20: MYT6206 (antibody, V domains shown)
VH: B18 VH with H50V
VL: B18 VL with F36H
notes: IgG

binding result [2]: no binding (tested: 50 nM PTK7)
B21: MYT6184 (antibody, V domains shown)
VH: B18 VH with H50V, G99H
VL: B18 VL
notes: IgG

binding result [2]: no binding (tested: 50 nM PTK7)
B22: MYT6186 (antibody, V domains shown)
VH: B18 VH with H50V, S101H
VL: B18 VL
notes: IgG

binding result [2]: no binding (tested: 50 nM PTK7)
B23: MYT6190 (antibody, V domains shown)
VH: B18 VH with H50V, A105H
VL: B18 VL
notes: IgG

binding result [2]: no binding (tested: 50 nM PTK7)
B24: MYT6210 (antibody, V domains shown)
VH: B18 VH with H50V
VL: B18 VL with A55H
notes: IgG

binding result [2]: no binding (tested: 50 nM PTK7)
B25: MYT6221 (antibody, V domains shown)
VH: B18 VH with H50V
VL: B18 VL with D98H
notes: IgG

binding result [2]: no binding (tested: 50 nM PTK7)
B26: MYT6209 (antibody, V domains shown)
VH: B18 VH with H50V
VL: B18 VL with R54H
notes: IgG

binding result [2]: no binding (tested: 50 nM PTK7)
B27: MYT6231 (antibody, V domains shown)
VH: QVQLVESGGGVVQPGRSLRLSCAASGFTFSSHGMHWVRQAPGKGLEWVAVIWDDGSNKYYVDSVKGRFTISRDNSKNTLYLQMNSLRAEDTAVYYCARDDYYGSGSFNSYYGTDVWGQGTTVTVSS
VL: EIVLTQSPATLSLSPGERATLSCRASQSVSIYLAWYQQKPGQAPRLLIYDASNRATGIPARFSGSGSGTDFTLTISSLEPEDFAVYYCQQRSNWPPFTFGPGTKVDIK
notes: IgG

binding result [2]: no binding (tested: 50 nM PTK7)
B28: MYT6268 (antibody, V domains shown)
VH: B27 VH with H32Y, T113H
VL: B27 VL
notes: IgG

binding result [2]: no binding (tested: 50 nM PTK7)
B29: MYT6256 (antibody, V domains shown)
VH: B27 VH with H32Y, Y101H
VL: B27 VL
notes: IgG

binding result [2]: no binding (tested: 50 nM PTK7)
B30: MYT6267 (antibody, V domains shown)
VH: B27 VH with H32Y, G112H
VL: B27 VL
notes: IgG

binding result [2]: no binding (tested: 50 nM PTK7)
B31: MYT6254 (antibody, V domains shown)
VH: B27 VH with H32Y, D99H
VL: B27 VL
notes: IgG

binding result [2]: no binding (tested: 50 nM PTK7)
B32: MYT6269 (antibody, V domains shown)
VH: B27 VH with H32Y, D114H
VL: B27 VL
notes: IgG

binding result [2]: no binding (tested: 50 nM PTK7)
B33: MYT6255 (antibody, V domains shown)
VH: B27 VH with H32Y, D100H
VL: B27 VL
notes: IgG

binding result [2]: no binding (tested: 50 nM PTK7)
B34: MYT6253 (antibody, V domains shown)
VH: B27 VH with H32Y, R98H
VL: B27 VL
notes: IgG

binding result [2]: no binding (tested: 50 nM PTK7)
B35: MYT6244 (antibody, V domains shown)
VH: B27 VH with H32Y, Y59H
VL: B27 VL
notes: IgG

binding result [2]: no binding (tested: 50 nM PTK7)
B36: MYT6232 (antibody, V domains shown)
VH: B27 VH with H32Y, G33H
VL: B27 VL
notes: IgG
